Reference: paper PMC6828549 (Nature structural & molecular biology, 2019)

Biological target: T1, His6-Nxf2 (full length), recombinant from insect cells (Drosophila melanogaster, UniProt Q9VV73 1-841)
T1 sequence: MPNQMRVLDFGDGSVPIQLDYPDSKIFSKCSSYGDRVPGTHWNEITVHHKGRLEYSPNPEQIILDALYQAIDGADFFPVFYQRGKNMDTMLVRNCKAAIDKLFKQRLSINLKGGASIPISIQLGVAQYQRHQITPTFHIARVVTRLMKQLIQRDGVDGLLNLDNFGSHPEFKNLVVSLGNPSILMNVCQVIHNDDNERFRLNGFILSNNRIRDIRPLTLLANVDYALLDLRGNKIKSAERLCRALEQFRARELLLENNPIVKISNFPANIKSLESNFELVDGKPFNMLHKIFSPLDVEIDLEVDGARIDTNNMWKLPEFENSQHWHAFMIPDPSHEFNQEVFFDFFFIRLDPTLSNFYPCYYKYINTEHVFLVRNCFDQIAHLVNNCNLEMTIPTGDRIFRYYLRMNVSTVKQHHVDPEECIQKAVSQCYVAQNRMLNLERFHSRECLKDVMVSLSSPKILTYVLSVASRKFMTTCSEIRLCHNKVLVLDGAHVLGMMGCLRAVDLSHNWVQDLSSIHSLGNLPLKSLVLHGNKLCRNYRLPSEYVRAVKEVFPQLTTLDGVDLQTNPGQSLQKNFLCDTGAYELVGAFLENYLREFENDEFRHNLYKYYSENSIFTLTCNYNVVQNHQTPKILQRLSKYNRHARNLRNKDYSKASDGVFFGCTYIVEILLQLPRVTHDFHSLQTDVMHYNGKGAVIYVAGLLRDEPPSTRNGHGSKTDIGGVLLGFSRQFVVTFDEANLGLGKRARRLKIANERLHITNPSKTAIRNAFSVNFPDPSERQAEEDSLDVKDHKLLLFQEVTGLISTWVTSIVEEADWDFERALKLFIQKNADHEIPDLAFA
Assay: pull-down + SEC

- binding result: binds
B1: Strep-tagged Panoramix fragment (263–446) (domain or fragment)
chain: ASSQNESSKERKLRDTELDYVPVRPDEHFIRPIKFSNLIERRPPQVEFNTVNLSKADKRSLAVARAELVLEQIQQKANKEEPPEFHMVDTICKLPVNESFRNQDCFENPSPICNNMNVVYKFNSTPGTRIDLSKWGLETVPEATKRLLRLLGIDVARLKELQSTVKPSQRILKLKKEQLEQGLA
